Target: the molecule itself
Test: SDS-PAGE of outer membranes solubilised at 37 C or 100 C

B1: DsrA (Ducreyi Serum Resistance A protein) of H. ducreyi strain 35000 (other)
chain: QQPPKFAGVSSLYSYEYDYGKGKWTWSNEGGFDIKVPGIKMKPKEWISKQATYLELQHYMPYTPVLVTYAPGVSPSPILLYPMSDPDQLGINRQQLKLNLYSYFNDLRHDFKLKVLDARISKNKQNIDTISKYLLELGTYLDDSYRMMEQNTHNINKLSKELQTGLANQSALSMLVQPNGVGKTSVSAAVGGYRDKTALAIGVGSRITDRFTAKAGVAFNTYNGGMSYGASVGYEF
notes: In Western blots DsrA was denatured, from outer membranes or total cellular proteins; In the vitronectin experiment it was on whole surface-iodinated bacteria and was then solubilised in detergent; It forms multimers of unstated number; also called 30 kDa protein; 30 kDa band
binding result: binds

— patent publication US7101989 (UNIVERSITY OF NORTH CAROLINA AT CHAPEL HILL, dated 2006)
